Data from patent US7037662 (dated 2006).

T1: LERK 7-FLAG (monovalent LERK7/AL-1 with N-terminal FLAG peptide) (human, UniProt P52803 21-203, limits assumed)
T1 construct: domain: mature protein stopped before the hydrophobic tail; also called soluble LERK7
T1 sequence (looked up): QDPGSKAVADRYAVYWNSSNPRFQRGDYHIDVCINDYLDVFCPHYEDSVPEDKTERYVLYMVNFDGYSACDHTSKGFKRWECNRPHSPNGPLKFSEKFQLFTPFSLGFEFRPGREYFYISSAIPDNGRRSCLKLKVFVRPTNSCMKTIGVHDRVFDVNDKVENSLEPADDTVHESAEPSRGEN

B1: LERK 4-Fc fusion protein (Fc fusion, UniProt P52798 26-170, looked up)
chain: LRHVVYWNSSNPRLLRGDAVVELGLNDYLDIVCPHYEGPGPPEGPETFALYMVDWPGYESCQAEGPRAYKRWVCSLPFGHVQFSEKIQRFTPFSLGFEFLPGETYYYISVPTPESSGQCLRLQVSVCCKERKSESAHPVGSPGES
notes: not shown: human Fc domain
B2: LERK 5-Fc fusion protein (Fc fusion, UniProt P52799 28-229, looked up)
chain: IVLEPIYWNSSNSKFLPGQGLVLYPQIGDKLDIICPKVDSKTVGQYEYYKVYMVDKDQADRCTIKKENTPLLNCAKPDQDIKFTIKFQEFSPNLWGLEFQKNKDYYIISTSNGSLEGLDNQEGGVCQTRAMKILMKVGQDASSAGSTRNKDPTRRPELEAGTNGRSSTTSPFVKPNPGSSTDGNSAGHSGNNILGSEVALFA
notes: not shown: human Fc domain
B3: HEK I-III (FLAG-tagged HEK subdomain construct, exons I-III) (receptor, not shown: small tags and cut ends)
chain: ELIPQPSNEVNLLDSKTIQGELGWISYPSHGWEEISGVDEHYTPIRTYQVCNVMDHSQNNWLRTNWVPRNSAQKIYVELKFTLRDCNSIPLVLGTCKETFNLYYMESDDDHGVKFREHQFTKIDTIAADESFTQMDLGDRILKLNTEIREVGPVNKKGFYLAFQDVGACVALVSVRVYFKKCPFTVKNLAMFPDTVPMDSQSLVEVRGSCVNNSKEEDPPRMYCSTEGEWLVPIGKCSCNAGYEERGFMCQ
notes: Native signal peptide (residues 1-20) replaced by IL3 signal and FLAG
B4: LERK 3-FLAG (monovalent FLAG-tagged LERK 3) (ligand, UniProt P52797 23-214, looked up, not shown: small tags and cut ends)
chain: QGPGGALGNRHAVYWNSSNQHLRREGYTVQVNVNDYLDIYCPHYNSSGVGPGAGPGPGGGAEQYVLYMVSRNGYRTCNASQGFKRWECNRPHAPHSPIKFSEKFQRYSAFSLGYEFHAGHEYYYISTPTHNLHWKCLRMKVFVCCASTSHSGEKPVPTLPQFTMGPNVKINVLEDFEGENPQVPKLEKSISG
notes: CHO cell-derived
B5: LERK 3-Fc fusion protein (Fc fusion, UniProt P52797 23-214, looked up)
chain: B4 chain
notes: not shown: human Fc domain
B6: HEK I-VII (N-terminally FLAG-tagged HEK exodomain, exons I-VII) (receptor, human, UniProt P29320 21-541, looked up, not shown: small tags and cut ends)
chain: ELIPQPSNEVNLLDSKTIQGELGWISYPSHGWEEISGVDEHYTPIRTYQVCNVMDHSQNNWLRTNWVPRNSAQKIYVELKFTLRDCNSIPLVLGTCKETFNLYYMESDDDHGVKFREHQFTKIDTIAADESFTQMDLGDRILKLNTEIREVGPVNKKGFYLAFQDVGACVALVSVRVYFKKCPFTVKNLAMFPDTVPMDSQSLVEVRGSCVNNSKEEDPPRMYCSTEGEWLVPIGKCSCNAGYEERGFMCQACRPGFYKALDGNMKCAKCPPHSSTQEDGSMNCRCENNYFRADKDPPSMACTRPPSSPRNVISNINETSVILDWSWPLDTGGRKDVTFNIICKKCGWNIKQCEPCSPNVRFLPRQFGLTNTTVTVTDLLAHTNYTFEIDAVNGVSELSSPPRQFAAVSITTNQAAPSPVLTIKKDRTSRNSISLSWQEPEHPNGIILDYEVKYYEKQEQETSYTILRARGTNVTISSLKPDTIYVFQIRARTAAGYGTNSRKFEFETSPDSFSISGESSQ
notes: extracellular domain; CHO cell product; in the zebrafish experiments expressed from injected mRNA; also called HEK-FLAG
B7: soluble HEK (sHEK), complete extracellular domain (exodomain) of HEK encoded by exons I-VII (receptor, human, UniProt P29320 21-541, looked up)
chain: B6 chain
notes: extracellular domain; Untagged soluble exodomain from CHO cells; also called HEK exodomain
B8: LERK7-Fc fusion protein (Fc fusion, UniProt P52803 21-203, looked up)
chain: T1 sequence (looked up)
notes: not shown: Fc and hinge regions of human IgG1

Columns and labels:
[1] = target: B7; assay: BIAcore, apparent KD from equilibrium responses, LERK-Fc over immobilised HEK
Experimental: (§1) Figure 2C: FIG. 2C: Expression of soluble HEK (sHEK) polypeptides encoded by the constructs shown in B. sHEK in lane 1 corresponds to the complete extracellular domain (exodomain) of HEK encoded by exons I–VII. […] Samples (50 μl) of purified fusion proteins comprising the human Fc domain and either LERK 1, 2, 3, 4, 5 and 7 at 10 μg/ml in BIAcore running buffer were applied onto an sHEK-derivatised sensor chip. The responses were recorded 20 s after completion of the injection phase and are shown as relative BIAcore response units, (RU) compared to the response of an equal amount of human Fc domain used as a control in this experiment.
(§2) Receptor-ligand interactions within the Eph family RTKs has mainly been studied by modified indirect Scatchard analysis of human IgG-Fc fusion proteins of ligands or receptors binding to receptor or ligand transfected cells, respectively (Beckmann et al., 1994, supra; Davis et al., 1994, supra; Ceretti et al., 1995, supra: Bennett et at., 1995). To evaluate if BIAcore analysis also detected the interaction of various LERKs with HEK, we compared the binding of bivalent, Fc-fusion proteins of LERK (LERKS 1 to 5) and LERK 7 (FIG. 2C) to sensor chip-immobilised HEK exodomain. Each ligand sample was injected at concentrations between 0.1–10 µg/ml (approximately 0.8 to 80 nM) across the sensor chip. A sample containing 10 µg/ml of the recombinant Human Fc fragment was used as a control.

[2] = target: T1, LERK 7-FLAG (monovalent LERK7/AL-1 with …); assay: BIAcore in-solution competition; 40 nM LERK 7 with increasing competitor injected onto an sHEK-derivatised sensor chip; residual response as % of the response without competitor
Experimental: (§3) The binding of various HEK constructs and derived peptides was analysed on the BIAcore optical biosensor (Pharmacia Biosensor, Sweden) using purified soluble HEK (corresponding to the entire extracellular domain) or LERK 7-FLAG derivatised CM 5 sensor chips and the interaction kinetics determined. The immobilization of HEK onto the sensor chip surface was performed essentially as described by Lackmann et al, 1996. LERK7-FLAG (47 μg/ml in 20 mM sodium acetate, pH 4.5) was coupled at 5 μl/min onto N-hydroxysuccinimide (NHS, 0.05 M)/N-hydroxysuccinimide-N-ethyl-N'-([…]) carbodiimide(EDC, 0.2 M) activated sensor chips (45 μl, 2 μl/min) to yield an increase in the response level of 2500–3000 response units (RU).
Figure 2F: FIG. 2F: Samples containing 40 nM LERK 7 and 1 nM—10 μM synthetic peptide encoded by exons I and II of the HEK gene (Δ), 10 nM—1 μM HEK I–VII (o), 10 nM—1 μM HEK IV–VII (x) or 1 nM—1 μM HEK I-III (□) were injected onto an sHEK-derivatised sensor chip. The residual responses are illustrated as percentage of the total response in the absence of competitor.

[3] = target: B7; assay: BIAcore, LERK-FLAG over HEK sensor chip; reference LERK 7-FLAG
[4] = target: B7; assay: BIAcore, LERK 3-FLAG over immobilised sHEK, single component model
Experimental: as §3
(§4) Figures 5A, 5B: FIG. 5: Binding curves for the interaction of monovalent LERK-FLAG fusion proteins with immobilised sHEK. Homogeneous preparations of CHO cell-derived LERK 3-FLAG (panel A) or LERK 7-FLAG (panel B) at increasing concentrations (8.22, 16.44, 32.88, 65.75, 131.5, 263, 526 nM) of LERK3-FLAG, and (1.25, 2.5, 5, 10, 20, 40, 80 nM) LERK7-FLAG were injected across an sHEK-derivatised sensor surface. BIAcore data for the association and dissociation phases were used to estimate corresponding kinetic rate constants on the basis of a one-to-one interaction model. (panel C). […]

[5] = target: B7; assay: BIAcore, apparent KD from kinetic rate constants, immobilised sHEK
Experimental: as §3, §4

[6] = target: T2, recombinant Human Fc fragment (control) (human, UniProt P01857-1 99-330 = IgG part, limits assumed); assay: BIAcore; human Fc domain at 10 µg/ml (50 µl) on an sHEK-derivatised sensor chip; response 20 s after the end of the injection
T2 construct: domain: Fc fragment; also called human Fc domain; control recombinant Fc construct
Experimental: as §1
as §2, with “A sample containing 10 µg/ml of the recombinant Human Fc fragment was used as a control.” left out

Binder: B1
- Kd [1]: 6 nM

Binder: B2
- Kd [1]: 24 nM

Binder: B3
- IC50 (read off the curve) [2]: ~70 nM

Binder: B4
- fold higher concentration needed for a response comparable to LERK7 [3]: ~30 fold
- koff [4]: 0.26 s⁻¹
- kon [4]: 370000 M⁻¹ s⁻¹
- Kd [5]: 590 nM

Binder: B5
- Kd [1]: 5 nM

Binder: B6
- IC50 (read off the curve) [2]: ~90 nM

Binder: B7
- binding result [6]: no binding (tested: 10 µg/ml)

Binder: B8
- Kd [1]: 3 nM
